Reference: US20170252403A1, “METHODS AND COMPOSITIONS FOR TREATING RETINAL DISORDERS” (AMARANTUS BIOSCIENCE HOLDINGS, INC., priority 2014, published 2017)
Values joined by “and” are separate entries in the source; they are usually repeats but may differ in a detail not shown here. Equal entries are not always repeated. “Also recorded” adds a separate entry of the source. Where two headings read alike, the source gives them in different places.

Assays:
[1] = General behavior and body weight in the rat retinal ischemia study; settings: for Body weight, sacrifice day, mean: Day 7, group mean
Description: The body weight of all animals was recorded before the start of the study, on Day 0 and at the end of the study (Day 7).
Each day, the general behavior and the aspect of all animals were observed.

[2] = test system: primary mixed cortical/hippocampal neuronal cultures; settings: cultures exposed to the ER stressor tunicamycin; cited from earlier work
[3] = test system: ischemia of the brain (tMCAO); settings: cited from earlier work
[4] = test system: retinal function after transient retinal ischemia (optic nerve clamping); assay: Electroretinography (ERG a-wave/b-wave amplitude) after retinal ischemia by optic nerve clamping
Description: (§1) In this Example, retinal ischemia was induced by transient vascular clamping of the optic nerve in the right eyes of Sprague Dawley albino rats for 45 min. Reperfusion was initiated by the release of the clamp. Retinal function was evaluated by ERG at baseline and 7 days after ischemia. RGC survival was assessed by immunohistochemistry 7 days after ischemia.
(§2) Retinal ischemia was induced by vascular clamping of the optic nerve in the right eyes for 45 min. Reperfusion was initiated by the release of the clamp. Retinal function was evaluated by electroretinography (ERG) at baseline and 7 days after ischemia. Retinal Ganglion Cell (RGC) survival was assessed by immunohistology 7 days after ischemia.
The functional status of the retina was evaluated by electroretinography one week after the ischemic insult and compared to baseline values determined just prior to optic nerve ischemia. The b-wave is induced by potassium efflux shunted from activated bipolar cells by Müller cells and is an electrophysiological indicator of inner retinal signal transmission. The ERG parameters applied were the following: Color: white maximum; Maximum intensity: 2.6 cd·s/m2 (0 dB); Duration 0.24 ms; Numbers of flashes: 1; Filter: 50 Hz; Impedance threshold: 90 kΩ.
Test and control items were injected intravitreally (4 μL) in right eye from anesthetized rat using a mix of xylazine/ketamine and a 30-G needle mounted on a syringe, immediately after reperfusion.
Reference item was intraperitoneally dosed using a 0.5 mL/kg volume of administration, 30 min before induction.
Right eyes underwent a temporal orbitectomy combined with periorbital stripping. The globe remained in the orbit and was completely isolated on a pedicle consisting of the optic nerve, ophthamociliary arteries and the venous outflow. A clamp placed around the pedicle initiated the global ocular ischemia when tightened.
Ischemia was maintained for 45 minutes. The reperfusion period was initiated by the release of the clamp.
ERG was recorded before ischemia (baseline) and 7 days after reperfusion in both eyes. The a-wave and b-wave amplitudes (μV) were measured for each ERG; the a-wave and b-wave amplitudes as a percentage of the baseline values obtained before ischemia. […] Mydriaticum (0.5% tropicamide) were instilled for pupillary dilatation.
ERG parameters: • Color: white maximum. • Maximum intensity: 2.6 cd·s/m2 (0 dB); Duration 0.24 ms; number of flash: 1. • Filter: 50 Hz. • Impedance Threshold: 90 kΩ.

[5] = test system: eyes of pigmented rabbits; assay: 15-day ocular tolerance study after single intravitreal administration; assay type: in vivo, pigmented rabbit; settings: MANF 3 mg/mL, 100 μL single intravitreal
Excerpt: Ten female pigmented rabbits were divided into two groups of five animals each, corresponding to both treatments.
The eyes of the animals were examined by Split-lamp and assessed by using the McDonald-Shadduck's scale at Baseline and at Days 1, 3, 8 and 15. At the end of the in-life period on Day 15 both eyeballs of all animals were collected and processed for histology and microscopic examination.

[6] = test system: retinal ganglion cells (RGC); assay: Retinal ganglion cell survival (Brn3a immunohistochemistry on flat-mounted retinas) after retinal ischemia; settings: for Alive cells (BrN3A positive) in right eye, group Mean / Alive cells (BrN3A positive) in right eye, individual mean cells/mm^2: right injured eye; for Alive cells (BrN3A positive) in right eye, group Mean / Alive cells (BrN3A positive) in right eye, individual mean cells/mm^2 / RGC density, alive cells (BrN3A positive) in right eye: 7 days after ischemia; for Alive cells (BrN3A positive) in right eye, individual mean cells/mm^2: individual rats; for RGC density, alive cells (BrN3A positive) in right eye: 4 μL intravitreal once after reperfusion; for Alive cells (BrN3A positive) in right eye, group Mean / RGC density, alive cells (BrN3A positive) in right eye: group mean;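 as to all read-outs here: sprague Dawley rats, right optic nerve vessels clamped 45 min then reperfused, Brn3a-stained RGC counted on flat-mounted retinas in cells/mm^2, 8 fields per retina, uninjured left eyes as naive controls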
Description: as §1, §2
To assess the effect of the treatment on RGC viability, the RGC density was evaluated 7 days after ischemia by immunohistochemistry with a stain for the RGC specific marker Brn3a.
After euthanasia, the right eyeballs were fixed in Formalin 4% (24 h at 4° C.), dissected and retinas were flat mounted. Two left eyes retinas per group were sampled and processed the same as the right eye retinas. They served as naïve controls. The flat mounted preparations were stained with an Alexa 594 conjugated anti-BRN3A (Brain-specific hoeobox/POU domain protein 3A, Chemicon, cat #mAb1585) to label RGC. Fluorescence images were recorded with Apotome microscope at magnification ×10 (Zeiss). RGC were counted with Image J software in 8 locations for each retina area (2 pictures per quarter). The cell count was reported in cell/mm^2.

[7] = MANF 1.5 mg/mL intravitreal, treated right (ischemic) eye, individual rats

B1: mesencephalic astrocyte-derived neurotrophic factor (protein)
chain: GRFYQDLKDRDVTFSPATIENELIKFCREARGKENRLCYYIGATDDAATKIINEVSKPLAHHIPVEKICEKLKKKDSQICELKYDKQIDLSTVDTKKLRVKELKKILDDWGETCKGCAEKSDYIRKINELMPKYAPKAASARTDL
- Body weight, sacrifice day, mean ([1]; MANF 0.15 mg/mL intravitreal): 343 g
- Body weight, sacrifice day, mean ([1]; MANF 0.5 mg/mL intravitreal): 345 g
- Body weight, sacrifice day, mean ([1]; MANF 1.5 mg/mL intravitreal): 347 g
- General behavior and appearance ([1]; daily observation during the study period, regardless the dose): not altered
- Protection against tunicamycin (TUNEL-positive cells as marker of apoptosis) [2]: fully protected
- Reduction of infarct size ([3]; MANF expressed in the cortex using an AAV-based vector): 40%
- Reduction of infarct size ([3]; day 2, compared to vehicle treated animals): 50%
- A-wave amplitude (μV), treated right eye ([4]; MANF 0.5 mg/mL intravitreal, Day 7, group mean): −268.9 μV
- A-wave Amplitude (μV) Day 7 [4, 7]: −254 μV and −299 μV and −255 μV
- B-wave Amplitude (μV) Day 7 [4, 7]: 426 μV and 456 μV
- Effects on body weight, clinical observations or ophthalmic examinations ([5]; right eye, 15 days, McDonald-Shadduck scale): no treatment- or administration-related effects
- Ocular tolerance ([5]; 15 days): macroscopically and microscopically well tolerated
- Histopathology evaluation of the eyes ([5]; Day 15): No pathological findings related to treatment
- Alive cells (BrN3A positive) in right eye, group Mean ([6]; MANF 0.15 mg/mL intravitreal): 402.8 cells/mm^2
- Alive cells (BrN3A positive) in right eye, individual mean cells/mm^2 ([6]; MANF 0.15 mg/mL intravitreal): 469 cells/mm^2 and 722 cells/mm^2 and 636 cells/mm^2 and 471 cells/mm^2 and 456 cells/mm^2 and 374 cells/mm^2 and 161 cells/mm^2 and 432 cells/mm^2 and 408 cells/mm^2 and 448 cells/mm^2 and 47 cells/mm^2 and 210 cells/mm^2
- RGC density, alive cells (BrN3A positive) in right eye ([6]; MANF 0.15 mg/mL): 403±189 cells/mm^2 and 402.8 cells/mm^2
- Alive cells (BrN3A positive) in right eye, group Mean ([6]; MANF 0.5 mg/mL intravitreal): 464.9 cells/mm^2
- Alive cells (BrN3A positive) in right eye, individual mean cells/mm^2 ([6]; MANF 0.5 mg/mL intravitreal): 512 cells/mm^2 and 443 cells/mm^2 and 613 cells/mm^2 and 364 cells/mm^2 and 379 cells/mm^2 and 549 cells/mm^2 and 336 cells/mm^2 and 97 cells/mm^2 and 249 cells/mm^2 and 1209 cells/mm^2 and 105 cells/mm^2 and 724 cells/mm^2
- RGC density, alive cells (BrN3A positive) in right eye ([6]; MANF 0.5 mg/mL): 465±301 cells/mm^2 and 464.9 cells/mm^2
- Alive cells (BrN3A positive) in right eye, group Mean ([6]; MANF 1.5 mg/mL intravitreal): 487.7 cells/mm^2
- Alive cells (BrN3A positive) in right eye, individual mean cells/mm^2 ([6]; MANF 1.5 mg/mL intravitreal): 546 cells/mm^2 and 378 cells/mm^2 and 549 cells/mm^2 and 723 cells/mm^2 and 536 cells/mm^2 and 974 cells/mm^2 and 197 cells/mm^2 and 543 cells/mm^2 and 488 cells/mm^2 and 260 cells/mm^2 and 342 cells/mm^2 and 316 cells/mm^2
- RGC density, alive cells (BrN3A positive) in right eye ([6]; MANF 1.5 mg/mL): 488±214 cells/mm^2 and 488±14 cells/mm^2 and 487.7 cells/mm^2
- Protection of RGC, in words ([6]; single intravitreal MANF at 0.15, 0.5 and 1.5 mg/mL, one-week reperfusion): a trend in protecting RGCs; also recorded: protecting RGC
